The supplement of paper PMC10567573

B1: PTPRD (parent)
chain: ELDELLKEISRKRRSIRYGREVEL

Variants of: B1
Assay: protein stability index of a GFP-peptide fusion (GPS, HEK-293T) (PSI 1-6); higher = more stable
Conditions: c terminus: a fixed tail appended
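Further: lentivirally expressed fusions sorted by FACS into six bins by GFP to DsRed ratio, PSI derived from sequencing read proportions per bin multiplied by bin number.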

Protein stability index, by site and new letter:
R17: V 2.27 | A 2.39 | E 2.64 | N 2.75 | C 2.34 | T 2.15 | G 2.19 | W 1.85 | F 1.63 | K 2.17 | P 2.97 | Y 2.6 | I 2.46 | M 2.12 | H 2.06 | S 2.44 | D 3.33 | L 2.55 | Q 2.68
I16: C 2.81 | W 1.8 | P 2.43 | Q 3.12 | H 2.37 | K 1.9 | R 1.72 | N 2.98 | G 3.21 | S 3.4 | F 1.81 | E 3.62 | V 2.35 | T 2.57 | M 2.54 | L 2.42 | Y 1.75 | A 1.9
R11: E 3.19 | C 2.94 | A 2.01 | Q 2.55 | T 3.21 | W 2.3 | N 2.34 | L 3.04 | S 2.49 | G 2.01 | P 3.04 | D 4.06 | I 2.45 | K 1.84 | V 3.18 | M 2.15 | Y 2.62 | F 2.76 | H 2.45
I9: E 4.46 | M 2.64 | W 2.89 | H 3.09 | L 2.21 | V 2.61 | A 3.14 | S 3.62 | C 2.54 | G 3.57 | T 3.97 | R 3.72 | Q 4.18 | K 3.96 | F 2.33 | P 3.81 | N 3.35 | D 3.98 | Y 2.63
R20: S 3.33 | N 2.8 | Y 1.89 | F 1.64 | L 1.84 | E 2.71 | H 2.08 | V 1.8 | C 2.01 | K 2.17 | W 1.43 | D 3.33 | Q 2.42 | P 2.49 | G 2.23 | I 2.11 | A 2.85 | T 2.45 | M 2.02
E21: V 1.86 | H 2.06 | L 2.12 | T 3.01 | I 1.82 | F 2.22 | A 2.16 | P 2.71 | G 2.22 | Y 2.15 | C 2.55 | M 1.86 | Q 2.13 | R 2.23 | D 1.79 | S 1.86 | N 1.93 | K 2.09
E23: F 2.05 | P 2.56 | I 2.38 | C 1.96 | H 2.51 | K 1.74 | T 2.34 | S 2.47 | V 2.57 | D 2.12 | L 2.85 | G 2.41 | Q 2.25 | A 2.31 | N 2.54 | M 2.08 | R 2.17
Y18: S 2.91 | R 2.33 | L 2.59 | A 2.13 | I 2.35 | D 2.6 | Q 2.43 | H 2.33 | N 2.74 | E 2.96 | C 1.67 | M 2.22 | F 2.33 | V 1.95 | K 2.46 | G 2.51 | W 1.84 | T 2.17 | P 2.78
S10: K 2.17 | A 2.44 | H 2.68 | R 2.48 | F 1.78 | P 3.01 | Y 2.06 | W 1.48 | I 2.09 | D 2.87 | N 2.77 | Q 2.2 | L 1.41 | V 2.48 | E 2.84 | G 2.44 | C 3.15 | T 2.49 | M 2.24
